Data published in doi:10.1101/851261.
pIC50: −log10 of the molar value.

How the values were obtained:
[1] = biological target: AjKissR2 (Apostichopus japonicus); test: flow cytometry on cells
[2] = biological target: AjKissR1 (Apostichopus japonicus); test: flow cytometry on cells

| Substance | pIC50 [1] | pIC50 [2] |
| --- | --- | --- |
| AjKiss1a (peptide) | 7.02 |  |
| AjKiss1b (peptide) |  | 6.45 |
